Patent US11649460B2, “DNA aptamers, method for inhibiting human galectin-1 and method of treating a mammal in need thereof” (priority 2020, dated 2023)

Columns and labels:
[1] = tested on: NHF human foreskin skin fibroblasts; assay: in vitro
From the text: (§1) The XLSTAT software was used to determine the IC50, TGI and LC50 values using the four-parameter logistic curve equation.

[2] = tested on: OVCAR-3 human ovarian adenocarcinoma cell line; assay: SRB cell proliferation (cytotoxicity) assay, OVCAR-3
From the text: as §1

[3] = tested on: MCF-7 human breast adenocarcinoma cell line; assay: SRB cell proliferation (cytotoxicity) assay, MCF-7
From the text: as §1

[4] = tested on: HT-29 human colorectal adenocarcinoma; assay: SRB cell proliferation (cytotoxicity) assay, HT-29
From the text: as §1

[5] = tested on: A-375 human malignant melanoma; assay: SRB cell proliferation (cytotoxicity) assay, A-375
From the text: as §1

[6] = tested on: HCT 116 human colorectal carcinoma; assay: SRB cell proliferation (cytotoxicity) assay, HCT 116
From the text: as §1

[7] = target: T1, native human galectin-1 (hGal1) (Homo sapiens, UniProt P09382); assay: Thermofluor thermal shift assay (TSA), native galectin-1; format: binding; conditions: 5 μM protein
T1 construct: 42; made in house; host or cells: E. coli strain M-15
Protocol: In an attempt to screen among the selected aptamers that better interact with hGal1, differential scanning fluorimetry (Termofluor) was used to characterize their binding to its target. Among all the selected aptamers, SEQ ID NO.: 4 seemed to have a more intense effect on hGal1 thermoshift and so was chosen for further analysis. The selected aptamer had its interaction evaluated with native and alkylated galectin-1. […] The respective thermal displacements were evaluated as a function of an increasing concentration of SEQ ID NO.: 4 (FIG. 1).
Thermofluor experiments were performed on an Mx3005 RT-PCR (Agilent Technologies) using the SYPRO® Orange dye (492/610 nm) (Invitrogen) as fluorescent probe. The purified (native and alkylated) protein samples were incubated for 30 min with increasing concentration of the molecules of interest, centrifuged, and submitted to the thermal denaturation assay, totalizing four distinct experiments. In a 96-well plate (Agilent Technologies) 20 μl of the reaction containing 5 μM of each protein in buffer PBS 1× and 5× SYPRO® Orange were heated from 25° C. to 95° C. at a rate of 1° C./min. The experimental result was processed as in the protocol previously described and the melting temperature was obtained using GraphPad Prism software (www.graphpad.com).

[8] = tested on: DU-145 human prostate carcinoma cell line; assay: SRB cell proliferation (cytotoxicity) assay, DU-145
From the text: as §1

[9] = tested on: SK-BR-3 human breast adenocarcinoma; assay: SRB cell proliferation (cytotoxicity) assay, SK-BR-3
From the text: as §1

[10] = target: T2, hGal1-induced hemagglutination of red blood cells (Homo sapiens, UniProt P09382); assay: Hemagglutination inhibition assay, native hGal1; format: cell-based; conditions: native Gal1 5 μM
T2 construct: 42; made in house; host or cells: E. coli strain M-15
Protocol: Hemagglutination Inhibition Assay
(§2) Hemagglutination assay was adopted to assess the capacity of SEQ ID NO.: 4 in inhibiting the lectin cross-linking aggregation of red blood cells (RBC), as previously described. Briefly, using a 96-well microplates appropriate amounts of 5 μM hGal1 were blended with 50 μL of aptamer in an increasing concentrations manner (0-40 μM) in PBS 1× buffer (pH 7.4). Following, 50 μL of 3% purified type B+ RBC in PBS. After 2 h of room temperature incubation, the plate was photographed and the hemagglutination area was estimated by area calculator Sketchandcalc™ and the results were expressed as relative agglutination.

alkylated Gal1 = target: T3, alkylated Gal1 (Homo sapiens, UniProt P09382); assay: Hemagglutination inhibition assay, alkylated Gal1; format: cell-based; conditions: alkylated Gal1 5 μM
T3 construct: 42; made in house; host or cells: E. coli strain M-15
Protocol: FIG. 15 illustrates the hemagglutination test with constant protein concentration at 5 μM and titration of aptamers SEQ ID NO.: 4 and SEQ ID NO.: 9. (a) Titration with aptamer 4. The hemagglutination of native Gal1 was inhibited from the concentration of 10 μM of this compound.
as §2
It was observed that treating hGal-1 with Iodoacetamide, which covalently binds the acetamide group in all solvent accessible cysteines sulfhydryl side chain, abolishes the anti-hemagglutinating activity of the aptamer. According to the proposed binding mode, this happens because Cysteines 2, 88 and 130 interact directly with the aptamer and adding the acetamide group to their side chains would disrupt specific aptamer-protein interactions (FIG. 13C).

T2 sequence (P09382 2-135): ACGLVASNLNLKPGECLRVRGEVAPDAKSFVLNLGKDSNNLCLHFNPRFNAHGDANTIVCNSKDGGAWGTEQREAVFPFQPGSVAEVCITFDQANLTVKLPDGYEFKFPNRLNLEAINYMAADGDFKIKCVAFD
T3 sequence (P09382 2-135): as above
T1 sequence (P09382 2-135): as above

B1: AGCTGACACAGCAGGTTGGTGCCCAAAAGAGCCAATCCACGACGACACCCCAAAAACCATATCACGAATACCCGAGTCGAGCAATCTCGAAAT (nucleic acid)
DNA: AGCTGACACAGCAGGTTGGTGCCCAAAAGAGCCAATCCACGACGACACCCCAAAAACCATATCACGAATACCCGAGTCGAGCAATCTCGAAAT
modifications: chemistry not given here
Relative viability (%) of test items ([1]; 0.781 µM): 104.0% | Relative viability (%) of test items ([1]; 1.562 µM): 96.2% | Relative viability (%) of test items ([1]; 3.125 µM): 95.7% | Relative viability (%) of test items ([1]; 6.25 µM): 92.7% | Relative viability (%) of test items ([1]; 12.5 µM): 114.0% | Relative viability (%) of test items ([1]; 25 µM): 84.6% | Relative viability (%) of test items ([1]; 50 µM): 44.6% | Relative viability (%) of test items ([1]; 100 µM): −12.8% | TGI: Concentration for total inhibition of cell growth ([1]; NHF): 83.697 µM | IC50 ([1]; read-out: IC50: Concentration to inhibit 50% of cell growth, NHF): 46.9 µM | Relative viability (%) of test items ([2]; 0.781 µM): 105.9% | Relative viability (%) of test items ([2]; 1.562 µM): 99.6% | Relative viability (%) of test items ([2]; 3.125 µM): 93.9% | Relative viability (%) of test items ([2]; 6.25 µM): 84.3% | Relative viability (%) of test items ([2]; 12.5 µM): 50.2% | Relative viability (%) of test items ([2]; 25 µM): 23.4% | Relative viability (%) of test items ([2]; 50 µM): 8.1% | Relative viability (%) of test items ([2]; 100 µM): −62.0% | TGI: Concentration for total inhibition of cell growth ([2]; OVCAR-3): 45.952 µM | IC50 ([2]; read-out: IC50: Concentration to inhibit 50% of cell growth, OVCAR-3): 16.1 µM | CC50 ([2]; read-out: LC50: Concentration for 50% cell death, OVCAR-3): 91.4 µM | Relative viability (%) of test items ([3]; 0.781 µM): 103.8% | Relative viability (%) of test items ([3]; 1.562 µM): 95.5% | Relative viability (%) of test items ([3]; 3.125 µM): 97.8% | Relative viability (%) of test items ([3]; 6.25 µM): 84.8% | Relative viability (%) of test items ([3]; 12.5 µM): 73.6% | Relative viability (%) of test items ([3]; 25 µM): 55.1% | Relative viability (%) of test items ([3]; 50 µM): 37.5% | Relative viability (%) of test items ([3]; 100 µM): −19.5% | TGI: Concentration for total inhibition of cell growth ([3]; MCF-7): 80.767 µM | IC50 ([3]; read-out: IC50: Concentration to inhibit 50% of cell growth, MCF-7): 32 µM | CC50 ([3]; read-out: LC50: Concentration for 50% cell death, MCF-7): > 100 µM | Relative cell viability (%) of test items ([4]; 0.781 µM): 92.0% | Relative cell viability (%) of test items ([4]; 1.562 µM): 95.9% | Relative cell viability (%) of test items ([4]; 3.125 µM): 97.2% | Relative cell viability (%) of test items ([4]; 6.25 µM): 92.5% | Relative cell viability (%) of test items ([4]; 12.5 µM): 83.1% | Relative cell viability (%) of test items ([4]; 25 µM): 32.7% | Relative cell viability (%) of test items ([4]; 50 µM): 14.4% | Relative cell viability (%) of test items ([4]; 100 µM): 0.2% | IC50 ([4]; read-out: IC50: Concentration to inhibit 50% of cell growth, HT-29): 20.4 µM | Relative cell viability (%) of test items ([5]; 0.781 µM): 121.2% | Relative cell viability (%) of test items ([5]; 1.562 µM): 107.1% | Relative cell viability (%) of test items ([5]; 3.125 µM): 107.0% | Relative cell viability (%) of test items ([5]; 6.25 µM): 114.0% | Relative cell viability (%) of test items ([5]; 12.5 µM): 97.7% | Relative cell viability (%) of test items ([5]; 25 µM): 92.5% | Relative cell viability (%) of test items ([5]; 50 µM): 70.6% | Relative cell viability (%) of test items ([5]; 100 µM): −19.4% | TGI: Concentration for total inhibition of cell growth ([5]; A-375): 90.397 µM | IC50 ([5]; read-out: IC50: Concentration to inhibit 50% of cell growth, A-375): 61.1 µM | CC50 ([5]; read-out: LC50: Concentration for 50% cell death, A-375): > 100 µM | Relative cell viability (%) of test items ([6]; 0.781 µM): 99.9% | Relative cell viability (%) of test items ([6]; 1.562 µM): 94.6% | Relative cell viability (%) of test items ([6]; 3.125 µM): 87.9% | Relative cell viability (%) of test items ([6]; 6.25 µM): 88.9% | Relative cell viability (%) of test items ([6]; 12.5 µM): 72.2% | Relative cell viability (%) of test items ([6]; 25 µM): 33.3% | Relative cell viability (%) of test items ([6]; 50 µM): 11.5% | Relative cell viability (%) of test items ([6]; 100 µM): −19.5% | TGI: Concentration for total inhibition of cell growth ([6]; HCT 116): 58.519 µM | IC50 ([6]; read-out: IC50: Concentration to inhibit 50% of cell growth, HCT 116): 20.1 µM | variation of denaturation temperature (Tm) of native hGal1 [7]: greater variation | Relative viability (%) of test items ([8]; 0.781 µM): 106.1% | Relative viability (%) of test items ([8]; 1.562 µM): 92.3% | Relative viability (%) of test items ([8]; 3.125 µM): 106.4% | Relative viability (%) of test items ([8]; 6.25 µM): 103.6% | Relative viability (%) of test items ([8]; 12.5 µM): 98.7% | Relative viability (%) of test items ([8]; 25 µM): 82.5% | Relative viability (%) of test items ([8]; 50 µM): 68.0% | Relative viability (%) of test items ([8]; 100 µM): 36.6% | TGI: Concentration for total inhibition of cell growth ([8]; DU-145): >100 µM | IC50 ([8]; read-out: IC50: Concentration to inhibit 50% of cell growth, DU-145): 74 µM | Relative cell viability (%) of test items ([9]; 0.781 µM): 107.5% | Relative cell viability (%) of test items ([9]; 1.562 µM): 99.9% | Relative cell viability (%) of test items ([9]; 3.125 µM): 111.1% | Relative cell viability (%) of test items ([9]; 6.25 µM): 109.1% | Relative cell viability (%) of test items ([9]; 12.5 µM): 98.5% | Relative cell viability (%) of test items ([9]; 25 µM): 48.7% | Relative cell viability (%) of test items ([9]; 50 µM): 3.1% | Relative cell viability (%) of test items ([9]; 100 µM): −70.0% | TGI: Concentration for total inhibition of cell growth ([9]; SK-BR-3): 49.017 µM | IC50 ([9]; read-out: IC50: Concentration to inhibit 50% of cell growth, SK-BR-3): 28.3 µM | CC50 ([9]; read-out: LC50: Concentration for 50% cell death, SK-BR-3): 80.7 µM | concentration from which hemagglutination was inhibited [10]: 10 µM | inhibitory effect on galectin-induced hemagglutination [10]: better effect | effect on hemagglutination by alkylated Gal1 (alkylated Gal1): no effect
